In article PMC6941993:

Tests used:
Experiment in all cases: SPR; Biacore T200; […]; single-cycle kinetics; […]
[1] = target: GP1_(MACV)–Fc (Machupo virus (MACV)) (UniProt Q8AZ52)
[2] = target: GP1_(JUNV)–Fc (Junín virus (JUNV)) (UniProt O10428)
[3] = target: GP1_(WWAV)–Fc (Whitewater Arroyo virus (WWAV)) (UniProt Q911P0)

Work on “stand-alone apical domain (sAD) designed from White-throated woodrat TfR1 (domain or fragment)” yielded a Kd [1] of 0.004 µM, a Kd [2] of 1 µM and a Kd [3] of 1 µM.
